In one data set the test system is O=C(O)c1ccccc1O. The data set is described as follows: purified protein, by the assay type. The conditions noted are these: other: MdpB2, salicylate, pH 7.5, 30° C., mean ± s.d., n = 2.
Data set [1] deals with T1, EntC, isochorismate synthase from E. coli MG1655 (purified, N-terminal His tag) (Escherichia coli, UniProt P0AEJ2).
T1 sequence (P0AEJ2 1-391): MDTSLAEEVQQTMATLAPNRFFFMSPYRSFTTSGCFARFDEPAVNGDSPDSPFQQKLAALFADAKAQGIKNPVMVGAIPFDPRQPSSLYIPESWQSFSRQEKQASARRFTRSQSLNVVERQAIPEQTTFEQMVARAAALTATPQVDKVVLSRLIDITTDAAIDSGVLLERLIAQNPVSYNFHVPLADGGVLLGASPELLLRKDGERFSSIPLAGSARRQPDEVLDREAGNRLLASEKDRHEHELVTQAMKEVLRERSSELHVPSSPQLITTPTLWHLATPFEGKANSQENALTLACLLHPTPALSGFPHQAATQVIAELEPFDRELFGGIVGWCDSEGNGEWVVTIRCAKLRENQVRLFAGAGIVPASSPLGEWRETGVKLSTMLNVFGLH
The data set is described as follows: ICS coupled enzyme assay, EntC (with PaPchB, salicylate accumulation by HPLC). The conditions noted are these: chorismic acid, pH 7.5, 30° C., 0.1 μM enzyme, mean ± s.d., n = 2.

Data set [2] has as its target T2, PchA, isochorismate synthase from Pseudomonas aeruginosa PAO1 (purified, N-terminal His tag) (Pseudomonas aeruginosa, UniProt Q51508).
T2 construct: coupled with PaPchB
Type of data set: biochemical. The conditions noted are these: chorismic acid, pH 7.5, 30° C., mean ± s.d., n = 2.

In data set [3] the target is T3, MenF, isochorismate synthase from E. coli MG1655 (purified, N-terminal His tag) (Escherichia coli, UniProt P38051).
T3 sequence (P38051 1-431): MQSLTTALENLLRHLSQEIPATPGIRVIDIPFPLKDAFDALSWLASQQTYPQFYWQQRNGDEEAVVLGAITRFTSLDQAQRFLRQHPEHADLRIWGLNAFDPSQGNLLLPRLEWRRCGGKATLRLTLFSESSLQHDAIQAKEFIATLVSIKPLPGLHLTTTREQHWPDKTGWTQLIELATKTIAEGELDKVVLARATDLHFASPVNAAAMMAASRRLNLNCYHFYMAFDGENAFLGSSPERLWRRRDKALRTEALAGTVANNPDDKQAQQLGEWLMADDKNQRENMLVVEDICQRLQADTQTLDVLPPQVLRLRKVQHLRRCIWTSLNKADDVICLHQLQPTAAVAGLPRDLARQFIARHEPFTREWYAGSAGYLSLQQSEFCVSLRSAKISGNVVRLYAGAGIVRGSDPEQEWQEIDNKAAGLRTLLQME
The experiment in a line: ICS coupled enzyme assay, MenF (with PaPchB, salicylate accumulation by HPLC). The settings on record: chorismic acid, pH 7.5, 30° C., 0.1 μM enzyme, mean ± s.d., n = 2.

Substrate in data set [4]: C=C(O[C@@H]1C=C(C(=O)O)C=C[C@H]1O)C(=O)O
The data set is described as follows: purified protein, by the assay type. The settings on record: chorismic acid, pH 7.5, 30° C., mean ± s.d., n = 2.

Data set [5] relates to conversion of salicylate to 4HC. The data set is described as follows: In vitro complementation assay, salicylate to 4HC in crude extract of E. coli/pZE-EPBS. The settings on record: purified enzyme supplemented into crude extract with required cofactors; crude extract alone 0.18 mg/L/h.

Values joined by “and” are separate entries in the source; they are usually repeats but may differ in a detail not shown here. Equal entries are not always repeated.

One may read the Km as the concentration of substrate that gives half-maximal velocity. The kcat/Km is the turnover number divided by the Michaelis constant.

T2 sequence (Q51508 whole entry): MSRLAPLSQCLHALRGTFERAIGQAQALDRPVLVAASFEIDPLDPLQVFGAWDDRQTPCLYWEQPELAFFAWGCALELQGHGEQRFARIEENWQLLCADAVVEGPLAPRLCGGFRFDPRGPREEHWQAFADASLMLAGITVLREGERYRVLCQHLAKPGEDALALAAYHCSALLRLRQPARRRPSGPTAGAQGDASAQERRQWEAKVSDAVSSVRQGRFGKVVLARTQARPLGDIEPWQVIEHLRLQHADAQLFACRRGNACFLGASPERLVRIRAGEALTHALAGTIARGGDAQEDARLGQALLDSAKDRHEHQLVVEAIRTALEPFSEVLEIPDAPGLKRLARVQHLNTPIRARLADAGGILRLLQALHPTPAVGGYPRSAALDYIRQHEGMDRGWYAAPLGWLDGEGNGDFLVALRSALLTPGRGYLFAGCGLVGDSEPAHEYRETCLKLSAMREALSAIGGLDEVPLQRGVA

Turning to “MdpB2, salicylate:CoA ligase from Actinomadura madurae ATCC39144 (purified, N-terminal His tag) (Actinomadura madurae)”, in the data set with O=C(O)c1ccccc1O, the Km was found to be 8.53 ± 0.94 µM, the kcat was found to be 1.18 ± 0.03 s⁻¹ and the kcat/Km worked out at 138000 M⁻¹ s⁻¹.

Take `C=C(O[C@@H]1C=C(C(=O)O)C=C[C@H]1O)C(=O)O` [chorismic acid]: the kcat was 2.12 S^−1 and 2.12 ± 0.07 S^−1 in data set [1]; 0.20 S^−1 and 0.20 ± 0.01 S^−1 in data set [2] (0.1 μM enzyme); 0.13 S^−1 and 0.13 ± 0.01 S^−1 in data set [3]. For the same molecule, the Km in data set [2] is 3.69 ± 0.53 µM.

B1: MenF, isochorismate synthase from E. coli MG1655 (purified, N-terminal His tag) (Escherichia coli K-12) (protein)
chain: MQSLTTALENLLRHLSQEIPATPGIRVIDIPFPLKDAFDALSWLASQQTYPQFYWQQRNGDEEAVVLGAITRFTSLDQAQRFLRQHPEHADLRIWGLNAFDPSQGNLLLPRLEWRRCGGKATLRLTLFSESSLQHDAIQAKEFIATLVSIKPLPGLHLTTTREQHWPDKTGWTQLIELATKTIAEGELDKVVLARATDLHFASPVNAAAMMAASRRLNLNCYHFYMAFDGENAFLGSSPERLWRRRDKALRTEALAGTVANNPDDKQAQQLGEWLMADDKNQRENMLVVEDICQRLQADTQTLDVLPPQVLRLRKVQHLRRCIWTSLNKADDVICLHQLQPTAAVAGLPRDLARQFIARHEPFTREWYAGSAGYLSLQQSEFCVSLRSAKISGNVVRLYAGAGIVRGSDPEQEWQEIDNKAAGLRTLLQME
B1: the Km in data set [4] (other: MenF) amounted to 6.75 ± 2.99 µM.

B2: EntC, isochorismate synthase from E. coli MG1655 (purified, N-terminal His tag) (Escherichia coli K-12) (protein)
chain: MDTSLAEEVQQTMATLAPNRFFFMSPYRSFTTSGCFARFDEPAVNGDSPDSPFQQKLAALFADAKAQGIKNPVMVGAIPFDPRQPSSLYIPESWQSFSRQEKQASARRFTRSQSLNVVERQAIPEQTTFEQMVARAAALTATPQVDKVVLSRLIDITTDAAIDSGVLLERLIAQNPVSYNFHVPLADGGVLLGASPELLLRKDGERFSSIPLAGSARRQPDEVLDREAGNRLLASEKDRHEHELVTQAMKEVLRERSSELHVPSSPQLITTPTLWHLATPFEGKANSQENALTLACLLHPTPALSGFPHQAATQVIAELEPFDRELFGGIVGWCDSEGNGEWVVTIRCAKLRENQVRLFAGAGIVPASSPLGEWRETGVKLSTMLNVFGLH
With B2, the Km in data set [4] (other: EntC) worked out at 11.93 ± 1.37 µM.

B3: BIS3: Biphenyl synthase from Sorbus aucuparia, 4HC-forming enzyme (protein, UniProt D2DRC5 1-388, looked up)
4-hydroxycoumarin synthase 2: MAPVVKNEPQHAKILAIGTANPPNVFHQKDYPDFLFRVTKNEHRTDLREKFDRICEKSRTKKRYLHLTEEMLKANPNIYTYGAPSLNVRQDICNIEVPKLGQEASLKAIKEWGQPISKITHLIFCTASCVDMPGCDFQLIKLLGLDPSVTRTMIYEAGCYAGATVLRMAKDFAENNKGARVLVVCAEITTVFFHGLTDTHLDILVGQALFADGASAVIVGANPEPEIERPLFEIVACRQTILPNSEHGVVANIREMGFNYYLSGDVPKFVGGNVVDFMTKTFEKVDGKNKDWNSLFFSVHPGGPAIVDQVEEKLGLKEGKLRATRHVLSEYGNMGAPTVHFILDEMRNKSIEEGKTTTGEGLEWGVVIGIGPGLTVETAVLRSEFITY
As to B3, in data set [5], the “rate of conversion of salicylate to 4HC” value was determined as 7.83 mg/L/h.

Values taken from US9353390B2, “Genetically engineered microbes and methods for producing 4-hydroxycoumarin” (University of Georgia Research Foundation, Inc., priority 2013, dated 2016).
